Source: publication PMC5811534, “Neuropathic MORC2 mutations perturb GHKL ATPase dimerization dynamics and epigenetic silencing by multiple structural mechanisms” (Nature Communications, 2018)

Legend:
[1] = target: the molecule itself; test: SEC-MALS; SEC-MALS with QELS, Superdex 200 (10/300), 293 K, gel filtration buffer (50 mM HEPES pH 7.5, 150 mM NaCl, 2 mM MgCl2, 0.25 mM TCEP); no nucleotide added; WT at 40 µM, S87L at 7.5 µM; monomer to dimer
[2] = target: the molecule itself; test: SEC-MALS; SEC-MALS with QELS, Superdex 200 (10/300), 293 K, gel filtration buffer; 2 mM Mg-AMPPNP added to the sample, 30 min on ice before injection; WT at 40 µM, T424R at 7.5 µM; monomer to dimer

Row | Protein | stoichiometry N [1] | stoichiometry N [2]
1 | MORC2(1–603) S87L (domain or fragment, human, UniProt Q9Y6X9-1 1-603, looked up, also called S87L variant; source: Sf9 insect cells (baculovirus), purified as for wild type; not shown: tandem StrepII, N-terminal, cleaved) MAFTNYSSLNRAQLTFEYLHTNSTTHEFLFGALAELVDNARDADATRIDIYAERREDLRGGFMLCFLDDGAGMDPSDAASVIQFGKLAKRTPESTQIGQYGNGLKSGSMRIGKDFILFTKKEDTMTCLFLSRTFHEEEGIDEVIVPLPTWNARTREPVTDNVEKFAIETELIYKYSPFRTEEEVMTQFMKIPGDSGTLVIIFNLKLMDNGEPELDIISNPRDIQMAETSPEGTKPERRSFRAYAAVLYIDPRMRIFIHGHKVQTKRLSCCLYKPRMYKYTSSRFKTRAEQEVKKAEHVARIAEEKAREAESKARTLEVRLGGDLTRDSRVMLRQVQNRAITLRREADVKKRIKEAKQRALKEPKELNFVFGVNIEHRDLDGMFIYNCSRLIKMYEKVGPQLEGGMACGGVVGVVDVPYLVLEPTHNKQDFADAKEYRHLLRAMGEHLAQYWKDIAIAQRGIIKFWDEFGYLSANWNQPPSSELRYKRRRAMEIPTTIQCDLCLKWRTLPFQLSSVEKDYPDTWVCSMNPDPEQDRCEASEQKQKVPLGTFRKDMKTQEEKQKQLTEKIRQQQEKLEALQKTTPIRSQADLKKLPLEVTTRPST | 2 | 
2 | MORC2(1–603) T424R (domain or fragment, human, UniProt Q9Y6X9-1 1-603, looked up, also called T424R variant; source: Sf9 insect cells (baculovirus), purified as for wild type; not shown: tandem StrepII, N-terminal, cleaved) MAFTNYSSLNRAQLTFEYLHTNSTTHEFLFGALAELVDNARDADATRIDIYAERREDLRGGFMLCFLDDGAGMDPSDAASVIQFGKSAKRTPESTQIGQYGNGLKSGSMRIGKDFILFTKKEDTMTCLFLSRTFHEEEGIDEVIVPLPTWNARTREPVTDNVEKFAIETELIYKYSPFRTEEEVMTQFMKIPGDSGTLVIIFNLKLMDNGEPELDIISNPRDIQMAETSPEGTKPERRSFRAYAAVLYIDPRMRIFIHGHKVQTKRLSCCLYKPRMYKYTSSRFKTRAEQEVKKAEHVARIAEEKAREAESKARTLEVRLGGDLTRDSRVMLRQVQNRAITLRREADVKKRIKEAKQRALKEPKELNFVFGVNIEHRDLDGMFIYNCSRLIKMYEKVGPQLEGGMACGGVVGVVDVPYLVLEPRHNKQDFADAKEYRHLLRAMGEHLAQYWKDIAIAQRGIIKFWDEFGYLSANWNQPPSSELRYKRRRAMEIPTTIQCDLCLKWRTLPFQLSSVEKDYPDTWVCSMNPDPEQDRCEASEQKQKVPLGTFRKDMKTQEEKQKQLTEKIRQQQEKLEALQKTTPIRSQADLKKLPLEVTTRPST |  | 2
